Laboratory results taken from patent US20210269521A1 (L AND L BIOPHARMA, published 2021).
Where a chain is given by its changes, count along the chain named. In names and notes the source's numbering stands. Like-named read-outs stand apart in the source and are kept apart here.

T1: Marmoset TIM-3 (Marmoset, UniProt F7I881 21-290)
T1 sequence: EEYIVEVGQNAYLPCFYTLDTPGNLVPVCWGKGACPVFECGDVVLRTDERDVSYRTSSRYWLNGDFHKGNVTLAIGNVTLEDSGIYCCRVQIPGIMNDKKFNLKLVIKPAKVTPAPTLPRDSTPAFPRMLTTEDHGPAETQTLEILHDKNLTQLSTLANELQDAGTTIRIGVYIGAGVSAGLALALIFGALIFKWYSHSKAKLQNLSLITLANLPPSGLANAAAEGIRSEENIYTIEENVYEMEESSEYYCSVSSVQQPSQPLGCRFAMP

B1: humanized anti-TIM-3 antibody ab32 (antibody, IgG4, V domains shown)
VH: EVQLVESGGGLVKPGGSLRLSCAASGFTFSDYYMTWVRQAPGKGLEWVSSINYDGRNTYYLDSLKSRFTISRDNAKNSLYLQMNSLRAEDTAVYYCARGYYYYGSSPNYFDYWGQGTLVTVSS
VL: DIQMTQSPSSLSASVGDRVTITCRASENIYSYLTWYQQKPGKAPKLLIYNAKTLAEGVPSRFSGSGSGTDFTLTISSLQPEDFATYYCQQHYGTPLTFGQGTKLEIK
notes: also called ab32 intact antibody
B2: bispecific antibody LB136 (bispecific antibody, human IgG4 S228P, kappa)
light: EIVLTQSPATLSLSPGERATISCRASKGVSTSGYSYLHWYQQKPGQAPRLLIYLASYLESGVPARFSGSGSGTDFTLTISSLEPEDFATYYCQHSRELPLTFGTGTKVEIKRTVAAPSVFIFPPSDEQLKSGTASVVCLLNNFYPREAKVQWKVDNALQSGNSQESVTEQDSKDSTYSLSSTLTLSKADYEKHKVYACEVTHQGLSSPVTKSFNRGEC
heavy: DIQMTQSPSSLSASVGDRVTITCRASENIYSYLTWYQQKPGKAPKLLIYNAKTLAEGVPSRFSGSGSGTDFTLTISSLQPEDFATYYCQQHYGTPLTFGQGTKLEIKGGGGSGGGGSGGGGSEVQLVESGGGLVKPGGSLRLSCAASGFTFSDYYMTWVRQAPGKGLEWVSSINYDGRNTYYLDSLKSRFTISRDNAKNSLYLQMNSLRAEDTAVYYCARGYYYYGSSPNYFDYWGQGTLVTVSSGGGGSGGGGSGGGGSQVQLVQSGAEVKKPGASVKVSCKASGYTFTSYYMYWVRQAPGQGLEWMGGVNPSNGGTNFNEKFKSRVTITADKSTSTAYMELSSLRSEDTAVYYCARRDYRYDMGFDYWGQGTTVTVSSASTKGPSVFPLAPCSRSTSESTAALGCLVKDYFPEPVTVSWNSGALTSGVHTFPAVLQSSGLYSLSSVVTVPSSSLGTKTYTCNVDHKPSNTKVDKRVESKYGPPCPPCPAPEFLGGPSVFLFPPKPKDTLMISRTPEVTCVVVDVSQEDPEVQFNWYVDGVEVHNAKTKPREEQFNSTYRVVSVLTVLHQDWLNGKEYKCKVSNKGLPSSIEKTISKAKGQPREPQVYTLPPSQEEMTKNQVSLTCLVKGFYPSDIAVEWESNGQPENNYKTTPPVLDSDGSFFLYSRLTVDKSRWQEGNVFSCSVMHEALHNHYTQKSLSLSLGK
notes: ab32VL-(G4S)3-ab32VH-(G4S)3-Ba08VH-hIgG4 with Ba08VL-κ
B3: bispecific antibody LB143 (bispecific antibody, human IgG4 S228P, kappa)
light: B2 light with I21L, T89V, E97D, T104G
heavy: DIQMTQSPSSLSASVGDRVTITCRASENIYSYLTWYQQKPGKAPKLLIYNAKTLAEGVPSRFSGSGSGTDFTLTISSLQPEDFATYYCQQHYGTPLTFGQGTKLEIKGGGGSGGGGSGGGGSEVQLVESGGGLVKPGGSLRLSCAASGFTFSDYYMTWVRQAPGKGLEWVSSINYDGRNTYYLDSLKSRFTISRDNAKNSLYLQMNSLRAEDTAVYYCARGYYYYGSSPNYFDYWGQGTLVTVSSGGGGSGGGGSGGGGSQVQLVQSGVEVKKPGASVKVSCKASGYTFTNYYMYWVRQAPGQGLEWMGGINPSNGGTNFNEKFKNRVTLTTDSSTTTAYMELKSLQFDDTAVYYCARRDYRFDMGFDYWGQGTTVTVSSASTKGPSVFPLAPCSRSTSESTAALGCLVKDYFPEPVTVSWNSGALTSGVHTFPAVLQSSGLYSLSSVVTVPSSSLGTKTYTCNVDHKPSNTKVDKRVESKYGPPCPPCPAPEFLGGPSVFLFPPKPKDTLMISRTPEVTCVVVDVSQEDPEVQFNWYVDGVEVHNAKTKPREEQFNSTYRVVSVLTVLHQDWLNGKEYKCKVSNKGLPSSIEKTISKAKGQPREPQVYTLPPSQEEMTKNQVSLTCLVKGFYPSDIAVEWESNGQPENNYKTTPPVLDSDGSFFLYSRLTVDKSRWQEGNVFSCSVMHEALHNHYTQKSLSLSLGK
notes: ab32VL-(G4S)3-ab32VH-(G4S)3-PemVH-hIgG4 with PemVL-κ
B4: humanized anti-TIM-3 antibody ab6 (antibody, IgG4, V domains shown)
VH: EVQLVESGGGLVKPGGSLRLSCAASGFTFSDYYMAWVRQAPGKGLEWVANINYDGSNTYYLDSLKSRFTISRDNAKNSLYLQMNSLRAEDTAVYYCARGLYYYGGNYFAYWGQGTLVTVSS
VL: DIQMTQSPSSLSASVGDRVTITCHASQGISSNIGWLQQKPGKAFKGLIYQGSNLEDGVPSRFSGSGSGADYTLTISSLQPEDFATYYCVQFAQFPPTFGQGTKLEIK
notes: also called ab6 intact antibody
B5: Tim3-0028 (antibody of US20170114135A1) (antibody, V domains shown)
VH: EVQLQQSVAELVRPGASVKLSCTASGFNIKTTYMHWVKQRPEQGLEWIGRIDPADDNTKYAPKFQGKATITADTSSNTAYLQLSSLTSEDAAIYYCVRDFGYVAWFAYWGQGTLVTFSA
VL: NIVMTPTPKFLPVSSGDRVTMTCRASQSVDNYVAWYQQKPGQSPKLLIYYASNRYIGVPDRFTGSGSGTDFTFTISSVQVEDLAVYFCQQHYSSPYTFGSGTKLEIK

Key:
[1] = biological target: T2, human TIM-3 extracellular domain-human IgG1 Fc fusion protein (human, UniProt Q8TDQ0 22-199); experiment: ELISA
T2 construct: Made in house or bought (ACROBiosystems TM3-H5258); also called TIM-3-hFc; not shown: human IgG1 Fc

[2] = biological target: T2, human TIM-3 extracellular domain-human …; experiment: ELISA; remark: listed apart in the source
Protocol: Goat-anti-hFc (Jackson, 109-005-008) was diluted to a concentration of 1 μg/ml with PBS buffer (pH 7.4) and added to a 96-well microplate (Corning, CLS3590-100EA) at a volume of 50 μl/well, then incubated in an incubator at 37° C. for 2 hours (Or the antigen TIM-3 was directly used to coat the microplate with a concentration of 0.5 μg/ml, and then the antibody to be tested was directly added). After discarding the liquid, a blocking solution of 5% skimmed milk (skimmed milk powder purchased from Bright) diluted with PBS was added at 200 μl per well, and the microplate was incubated for 2.5 hours at 37° C. or overnight (16-18 hours) at 4° C. for blocking. The blocking solution was discarded, and the microplate was washed 5 times with PBST buffer (PBS with pH 7.4 containing 0.05% tween-20), then 50 μl/well of 0.5 μg/ml TIM-3-hFc (Example 1) was added and incubated for 2 hours in a 37° C. incubator. After incubation, the microplate was washed 6 times with PB ST. 50 μl/well of supernatant (containing testing antibody) or different concentrations of the antibody to be tested was added, and the microplate was incubated at 37° C. for 2 hours and washed 5 times with PBST. 50 μl/well of 1:2500 diluted HRP-labeled secondary antibody (Jackson Immuno Research, 115-035-003) was added to the microplate, incubating at 37° C. for 1 hour. After washing the microplate 5 times with PBST, 50 μl/well TMB chromogenic substrate (KPL, 52-00-03) was added to the microplate, followed by incubating at room temperature for 10-15 min.
(§1) The above-mentioned TIM-3 and PD-1 bispecific antibodies of the present invention were optimized and designed using the methods of Example 2 and Example 5, and their affinity for TIM-3 and PD-1 were tested respectively.

[3] = biological target: T3, human TIM-3 extracellular domain-his tag protein (human, UniProt Q8TDQ0 22-199); experiment: SPR Biacore, antibody captured on Protein A, TIM-3-his in flow
T3 construct: Made in house or bought (ACROBiosystems TM3-H5229); also called TIM-3-his; Human Tim3-his; not shown: his tag
Protocol: First, Protein A (Thermo Pierce, Cat #21181) was conjugated to the biosensing chip CMS (Cat. #BR-1005-30, GE), and the chip was activated with the newly prepared 50 mM NHS (N-hydroxysuccinimide) and 200 mM EDC [1-ethyl-3-(3-dimethylaminopropyl) carbodiimide hydrochloride], then 10 μg/ml Protein A prepared with 10 mM NaAC (pH 4.0) was injected. […] The flow rate was 30 μl/min, the binding time was 180 seconds and the dissociation time is 300 seconds. Subsequently, the chip was washed for 30s with 10 mM Glycine-HCl (pH 1.5) at 30 μl/min. The data were fitted with a 1:1 Langmuir model using the software of Biacore T200 evaluation version 3.0 (GE), and the affinity value KD was obtained.

[4] = biological target: T2, human TIM-3 extracellular domain-human …; experiment: ELISA on human TIM-3, OD450 against Log[nM] of antibody
[5] = biological target: T4, human PD-1 extracellular domain protein expressed in Example 1 (tag not stated) (human, UniProt Q15116 25-170); experiment: ELISA, PD-1 coated
T4 construct: extracellular domain; also called PD-1 protein; not shown: human IgG1 Fc or his tag
Protocol: PD-1 expressed in Example 1 was diluted to a concentration of 1 μg/ml with PBS buffer, pH 7.4, and added to a 96-well microplate (Corning, CLS3590-100EA) at 50 μl per well, thereby incubating in an incubator at 37° C. for 2 hours. After discarding the liquid, a blocking solution of 5% skimmed milk (Shanghai Shenggong Biological Engineering Co., Ltd., A600669-0250) diluted with PBS was added at 200 μl per well, followed by incubating at 37° C. for 3 hours or 4° C. overnight (16-18 hours)) for blocking. Subsequently, the blocking solution was discarded, and the microplate was washed 5 times with PBST buffer (pH 7.4 PBS containing 0.05% tween-20). […] Subsequently, the microplate was washed 5 times with PBST, then 50 μl/well of 1:2500 diluted HRP-labeled secondary antibody (Jackson Immuno Research, 115-035-003) was added, thereby incubating at 37° C. for 1 hour. After washing the microplate 5 times with PBST, 50 μl/well TMB chromogenic substrate (KPL, 52-00-03) was added, then incubated at room temperature for 5-10 min. Finally, 50 μl/well of 1M H₂SO₄ was added to stop the reaction. […] Go microplate reader (ThermoFisher, 51119200) was used to read the absorption value at 450 nm and the EC50 based on the OD value was calculated.
as §1

[6] = biological target: T4, human PD-1 extracellular domain protein …; experiment: blocking ELISA, PD-1 coated, competitor biotin-labeled PD-L1
[7] = biological target: T2, human TIM-3 extracellular domain-human …; experiment: ELISA; remark: listed apart in the source
[8] = biological target: T3, human TIM-3 extracellular domain-his …; experiment: ELISA, human TIM-3-his
Marmoset TIM-3 = biological target: T1, Marmoset TIM-3; experiment: ELISA

Binder | EC50 [1] [pM] | EC50 [2] [pM] | Kd [3] [pM] | koff [3] [s⁻¹] | kon [3] [M⁻¹ s⁻¹] | EC50 (read off the curve) [4] [pM] | EC50 [5] [pM] | IC50 [6] [pM] | EC50 [7] [pM] | EC50 [8] [pM] | EC50 (Marmoset TIM-3) [pM]
B1 | 90 | 36 | 1180 | 0.000296 | 251000 | ~200 | – | – | – | – | –
B2 | – | 178 | – | – | – | – | 65 | 1000 | – | – | –
B3 | – | 140 | – | – | – | – | 64 | 1880 | – | – | –
B4 | 84 | 87 | 2830 | 0.00235 | 834000 | – | – | – | 95 | 110 | –
B5 | – | – | – | – | – | – | – | – | – | – | 36200
